Measurements as given in publication PMC314469, “Protein Interaction Networks by Proteome Peptide Scanning” (PLoS Biology, 2004).

T1: amphyphisin SH3 (AMPH_HUMAN), P49418
T1 chain: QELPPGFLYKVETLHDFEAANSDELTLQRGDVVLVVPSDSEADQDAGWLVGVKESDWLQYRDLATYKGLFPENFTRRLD


Molecular target: endophilin SH3 (SH3G2_HUMAN), Q99962
Experiment: SPOT array

normalised SPOT signal, Boehringer light units (BLU); mean over the file's lines of this peptide	Binder
882	AEERPRRPSQEQSA [Q9Y4D0 963-976]
130	DGKFLLRPRKEQGT [P43403 184-197]
33.1	DPNPPKRPLIFDTN [O14802 1370-1383]
0	DIKPLKRPRDEDDA [P11387 132-145]
658	DKKSPTRPKRHAKP [Q99710 3-16]
36.7	DGSFLARPSKSNPG [Q06124 26-39]
56	DMQSFRRPSAASID [Q96QH2 513-526]
468	DPPGPPRPPKEPGP [Q9NR59 1285-1299]
240	DKNIPMKPPTPLLN [AAM33634 99-113]
82.4	DPEDLKRPDPASLK [Q8WTY4 218-231]
85.2	DIPGPTRPPGQVLS [AAH30713 119-133]
70.2	AEEPLHRPKKELSA [P42858 83-96]
1710	DPNAPKRPLSGFFL [Q9UJ13 78-91]
39.4	DPNTFKRPQTPPKI [Q9Y4E3 337-350]
71.6	DNLKLFRPKKLLPK [Q9BQL6 374-387]
500	DKKSPTRPKRQAKP [Q9P2W5 3-16]
287	DGRTPLRPSRNTKQ [Q9H0H1 56-69]
794	DKLSPDRPIRDTRH [Q9ULT9 130-143]
27.9	DLSGLKRPSSSAST [Q9Y338 401-414]
5320	DPNAPKRPPSGFFL [O15347 88-101]
108	DPEVLKRPEYFGKF [Q9NZN6 122-135]
72.5	DGEMFMRPGKLFDY [P08574 161-174]
83	DLLSPRRPPDDPWA [BAC03422 263-277]
82.6	DPNAPKRPMSAYML [Q08945 543-556]

Second part, the binder before the results:

Binder	normalised SPOT signal, Boehringer light units (BLU); mean over the file's lines of this peptide
DLHPPPRPPSPTEI [O43154 1259-1273]	2640
DNIPLSRPKRNLSR [Q9Y4P9 18-31]	138
DKSPPPRPPTSPYP [O14607 862-876]	4530
DMAIPSKPPAASPE [Q8TEH3 531-545]	80
DKSPPPRPPSSPYP [O15550 915-929]	4090
DLPGPRRPAAAAAM [Q9NQ62 12-25]	66
DPNAPKRPPLAFFL [P23497 765-778]	8420
DPNAPKRPPSAFFL [P09429 90-103]	3610
DKIPFKRPSTYGVP [O95444 394-407]	67.7
AAESPGRPPPTAAE [Q9UPS7 514-528]	51.1
DNGGFKRPLAPSGR [Q9Y5U2 118-131]	98.6
DGKDPRRPKRPRTI [O60663 189-202]	85
DPNFPNKPPLTFDI [Q9H314 810-824]	47.9
DIPEPRRPVVEQAL [O15031 1306-1319]	41.3
DGVSLSRPGRTADS [P39191 408-421]	113
AEEQLRRPRIVHVG [Q9UBR1 62-75]	35.1
DKADLIRPKRKYEK [Q9H2F5 327-340]	64.3
DGRLLYRPNKAGET [Q9ULH0 399-412]	44.6

Molecular target: T1, amphyphisin SH3 (AMPH_HUMAN), P49418
Experiment: SPOT array

normalised SPOT signal, Boehringer light units (BLU); mean over the file's lines of this peptide	Binder
17.3	AEERPRRPSQEQSA [Q9Y4D0 963-976]
424	DGKFLLRPRKEQGT [P43403 184-197]
20.6	DPNPPKRPLIFDTN [O14802 1370-1383]
37.9	DIKPLKRPRDEDDA [P11387 132-145]
4130	DKKSPTRPKRHAKP [Q99710 3-16]
96.2	DGSFLARPSKSNPG [Q06124 26-39]
16.7	DMQSFRRPSAASID [Q96QH2 513-526]
73.4	DPPGPPRPPKEPGP [Q9NR59 1285-1299]
58.3	DKNIPMKPPTPLLN [AAM33634 99-113]
16.1	DPEDLKRPDPASLK [Q8WTY4 218-231]
75	DIPGPTRPPGQVLS [AAH30713 119-133]
134	AEEPLHRPKKELSA [P42858 83-96]
40.7	DPNAPKRPLSGFFL [Q9UJ13 78-91]
27.3	DPNTFKRPQTPPKI [Q9Y4E3 337-350]
41.9	DNLKLFRPKKLLPK [Q9BQL6 374-387]
3780	DKKSPTRPKRQAKP [Q9P2W5 3-16]
14900	DGRTPLRPSRNTKQ [Q9H0H1 56-69]
3530	DKLSPDRPIRDTRH [Q9ULT9 130-143]
31.5	DLSGLKRPSSSAST [Q9Y338 401-414]
20	DPNAPKRPPSGFFL [O15347 88-101]
43.9	DPEVLKRPEYFGKF [Q9NZN6 122-135]
117	DGEMFMRPGKLFDY [P08574 161-174]
20.5	DLLSPRRPPDDPWA [BAC03422 263-277]
41.4	DPNAPKRPMSAYML [Q08945 543-556]

More lines, now with the values behind:

Binder	normalised SPOT signal, Boehringer light units (BLU); mean over the file's lines of this peptide
DLHPPPRPPSPTEI [O43154 1259-1273]	64.8
DNIPLSRPKRNLSR [Q9Y4P9 18-31]	1930
DKSPPPRPPTSPYP [O14607 862-876]	83.4
DMAIPSKPPAASPE [Q8TEH3 531-545]	40.1
DKSPPPRPPSSPYP [O15550 915-929]	58.2
DLPGPRRPAAAAAM [Q9NQ62 12-25]	33.3
DPNAPKRPPLAFFL [P23497 765-778]	32
DPNAPKRPPSAFFL [P09429 90-103]	39.5
DKIPFKRPSTYGVP [O95444 394-407]	35.1
AAESPGRPPPTAAE [Q9UPS7 514-528]	22
DNGGFKRPLAPSGR [Q9Y5U2 118-131]	31.7
DGKDPRRPKRPRTI [O60663 189-202]	3740
DPNFPNKPPLTFDI [Q9H314 810-824]	45.5
DIPEPRRPVVEQAL [O15031 1306-1319]	37.2
DGVSLSRPGRTADS [P39191 408-421]	200
AEEQLRRPRIVHVG [Q9UBR1 62-75]	24.5
DKADLIRPKRKYEK [Q9H2F5 327-340]	417
DGRLLYRPNKAGET [Q9ULH0 399-412]	20
